This assay has as its target JunD, endogenous in LNCaP cells (human (endogenous in LNCaP)) (UniProt P17535). As to the kind of experiment: proximity ligation.
Sequence of UniProt P17535 (P17535 whole entry): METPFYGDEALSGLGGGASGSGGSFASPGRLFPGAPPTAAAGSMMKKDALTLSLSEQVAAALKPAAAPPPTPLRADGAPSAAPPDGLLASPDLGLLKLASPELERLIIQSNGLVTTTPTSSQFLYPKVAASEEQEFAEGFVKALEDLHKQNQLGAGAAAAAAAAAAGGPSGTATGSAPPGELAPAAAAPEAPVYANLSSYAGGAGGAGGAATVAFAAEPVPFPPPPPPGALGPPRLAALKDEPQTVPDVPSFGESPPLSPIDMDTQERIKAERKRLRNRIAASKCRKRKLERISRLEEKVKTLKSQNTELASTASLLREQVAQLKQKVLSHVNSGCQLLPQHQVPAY

The substance “Androgen receptor (AR), endogenous in LNCaP cells (from UniProt P10275 1-920)” displayed a fold induction of PLA spots per cell by androgen (against cells without R1881) of 3 fold.

The values above are taken from article PMC4224142.
